Three proteins from publication PMC13456619, “The (Glg)ABCs of cyanobacteria: modelling of glycogen synthesis and functional divergence of glycogen synthases in Synechocystis sp. PCC 6803” (Febs Letters, 2026) can be followed below.

Substrate in data set [1]: Nc1ncnc2c1ncn2[C@@H]1O[C@H](COP(=O)(O)OP(=O)(O)O[C@H]2O[C@H](CO)[C@@H](O)[C@H](O)[C@H]2O)[C@@H](O)[C@H]1O
As to the kind of experiment: purified protein. It is filed as biochemical, Escherichia coli. The note with it: 1 nM enzyme, 1 mg/mL bovine glycogen primer, 12 mM MgCl2, 50 mM HEPES-NaOH pH 8.0, 30 °C, no GlgB.

Substrate in data set [2]: Nc1ncnc2c1ncn2[C@@H]1O[C@H](COP(=O)(O)OP(=O)(O)O[C@H]2O[C@H](CO)[C@@H](O)[C@H](O)[C@H]2O)[C@@H](O)[C@H]1O
As to the kind of experiment: purified protein. Particulars: 1 mg/mL bovine glycogen primer, 12 mM MgCl2, 50 mM HEPES-NaOH pH 8.0, 30 °C, no GlgB. It is filed as biochemical, Synechocystis sp. PCC 6803.

B1: GlgA^ E.coli (Escherichia coli K-12) (protein)
chain: MQVLHVCSEMFPLLKTGGLADVIGALPAAQIADGVDARVLLPAFPDIRRGVTDAQVVSRRDTFAGHITLLFGHYNGVGIYLIDAPHLYDRPGSPYHDTNLFAYTDNVLRFALLGWVGAEMASGLDPFWRPDVVHAHDWHAGLAPAYLAARGRPAKSVFTVHNLAYQGMFYAHHMNDIQLPWSFFNIHGLEFNGQISFLKAGLYYADHITAVSPTYAREITEPQFAYGMEGLLQQRHREGRLSGVLNGVDEKIWSPETDLLLASRYTRDTLEDKAENKRQLQIAMGLKVDDKVPLFAVVSRLTSQKGLDLVLEALPGLLEQGGQLALLGAGDPVLQEGFLAAAAEYPGQVGVQIGYHEAFSHRIMGGADVILVPSRFEPCGLTQLYGLKYGTLPLVRRTGGLADTVSDCSLENLADGVASGFVFEDSNAWSLLRAIRRAFVLWSRPSLWRFVQRQAMAMDFSWQVAAKSYRELYYRLK
notes: full-length in pET28a, N-terminal His tag, expressed in E. coli, IMAC and anion exchange
B1: in data set [1], the Km was 275 ± 17 µM.

B2: GlgA1 (Synechocystis sp. PCC 6803 substr. Kazusa) (protein)
chain: MKILFVAAEVSPLAKVGGMGDVVGSLPKVLHQLGHDVRVFMPYYGFIGDKIDVPKEPVWKGEAMFQQFAVYQSYLPDTKIPLYLFGHPAFDSRRIYGGDDEAWRFTFFSNGAAEFAWNHWKPEIIHCHDWHTGMIPVWMHQSPDIATVFTIHNLAYQGPWRGLLETMTWCPWYMQGDNVMAAAIQFANRVTTVSPTYAQQIQTPAYGEKLEGLLSYLSGNLVGILNGIDTEIYNPAEDRFISNVFDADSLDKRVKNKIAIQEETGLEINRNAMVVGIVARLVEQKGIDLVIQILDRFMSYTDSQLIILGTGDRHYETQLWQMASRFPGRMAVQLLHNDALSRRVYAGADVFLMPSRFEPCGLSQLMAMRYGCIPIVRRTGGLVDTVSFYDPINEAGTGYCFDRYEPLDCFTAMVRAWEGFRFKADWQKLQQRAMRADFSWYRSAGEYIKVYKGVVGKPEELSPMEEEKIAELTASYR
notes: full-length, N-terminal His tag, expressed in E. coli, IMAC and anion exchange
As for B2, in data set [2], the Km is 152 ± 3.6 µM.

B3: GlgA2 (Synechocystis sp. PCC 6803 substr. Kazusa) (protein)
chain: MYIVQIASECAPVIKAGGLGDVIYGLSRELELRGHCVELILPMYDCMRYDHIWGLHDAYRNLEVPWYGSSIFCDVFCGWVHGRLCFFIQPKSSDNFFNRGHYYGALDDHMRFAFFSKAAMEFLLRSNKRPDIIHCHDWQTGLVPVLLYEIYRFHGMDHQRVCYTIHNFKHQGIAGANILHATGLNNDSYYFSYDRLQDNFNPNAINFMKGGIVYSNYVNTVSPHHAWEARFSDISCGLGHTLEIHQQKFGGILNGLDYEVWNPEIDPLLASNFSVKTFGDKAKNKQALRERLLLETDDKKPMLCFIGRLDGQKGVHLVHHSIYYALSQGAQFVLLGSATEPNLSKWFWHEKQHLNDNPNVHLELGFDEELAHLIYGAADIIVVPSNYEPCGLTQMIGLRYGAVPVVRGVGGLVNTVFDRDYDQNHPPEKRNGFVFYQPDEYALETALSRAIALYKDDPVAFKTLALQGMAYDYSWNKPGLQYVEAYEYIRA
notes: as for B1
On to B3, for which the Michaelis-Menten constant (Km) in data set [2] is 219 ± 9.9 µM.
